Test results as given in article PMC4462073, “Insights into the evolution of enzyme substrate promiscuity after the discovery of (βα)8 isomerase evolutionary intermediates from a diverse metagenome” (BMC Evolutionary Biology, 2015).

Substrate: NC(=O)c1ncn([C@@H]2O[C@H](COP(=O)(O)O)[C@@H](O)[C@H]2O)c1N=CN[C@@H]1O[C@H](COP(=O)(O)O)[C@@H](O)[C@H]1O
Experiment: purified protein
Assay type: biochemical, Acidimicrobium ferrooxidans

B1: HisA_Afer (Acidimicrobium ferrooxidans DSM 10331) (protein)
chain: MELVVAVDLLDGEAVRLRQGRFDAPRRFGDPRRYVEGALDAGARWFHVVDLDRARTPGDRRNADMVGDLIALVREAGGSVEVGGGVRTARDIAELLETGASRVVLGTALVEETLDELDPEHLVAALDYRRGDEGALEVVVSAWERSGGRRLLEASARLFARGVRTQLLTDVGRDGMASGPDLGTYQGLCEVVPVEVIASGGVASADDLAKLAAIRGARGAVWGAVVGTALLDGSLGFDEALSACRA
notes: codon-optimised synthetic gene in pET22b (NdeI/HindIII), expressed in E. coli, purified
Km: 1.1 ± 0.2 µM | kcat: 0.05 ± 0.001 s⁻¹ | kcat/Km: 45000 M⁻¹ s⁻¹
